Measurements taken from PMC9482650, “Quantitative fragmentomics allow affinity mapping of interactomes” (Nature Communications, 2022).

Experiments:
Test in all cases: holdup assay
Set-up in all cases: key: below the threshold = too weak to quantify, mostly under pKd 3.1 to 4
Details in all cases: plain residues with an end cap or a label only (N-terminal biotin on a linker: ado-ado)
MAGI2_6, Q86UL8 = molecular target: MAGI2_6, Q86UL8
MPP7, Q5T2T1 = molecular target: T1, MPP7, Q5T2T1
T1 sequence (Q5T2T1 134-230, limits assumed, looked up): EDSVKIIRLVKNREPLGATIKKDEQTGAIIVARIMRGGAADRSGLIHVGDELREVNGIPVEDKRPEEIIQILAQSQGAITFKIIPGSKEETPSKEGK

APBA3_1, O96018 = molecular target: T2, APBA3_1, O96018
T2 sequence (O96018 389-490, limits assumed, looked up): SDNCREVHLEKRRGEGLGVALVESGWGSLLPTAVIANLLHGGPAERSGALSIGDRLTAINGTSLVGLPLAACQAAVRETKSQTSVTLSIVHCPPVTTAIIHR

ARHGEF11, O15085 = molecular target: T3, ARHGEF11, O15085
T3 sequence (O15085 42-136, limits assumed, looked up): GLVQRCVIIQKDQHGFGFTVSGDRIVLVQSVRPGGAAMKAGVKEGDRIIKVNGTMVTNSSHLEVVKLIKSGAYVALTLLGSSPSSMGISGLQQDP

APBA2_1, Q99767 = molecular target: T4, APBA2_1, Q99767
T4 sequence (Q99767 563-664, limits assumed, looked up): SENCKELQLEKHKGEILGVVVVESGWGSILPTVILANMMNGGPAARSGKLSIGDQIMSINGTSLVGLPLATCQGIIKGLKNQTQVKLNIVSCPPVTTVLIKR

SNTG1, Q9NSN8 = molecular target: T5, SNTG1, Q9NSN8
T5 sequence (Q9NSN8 52-150, limits assumed, looked up): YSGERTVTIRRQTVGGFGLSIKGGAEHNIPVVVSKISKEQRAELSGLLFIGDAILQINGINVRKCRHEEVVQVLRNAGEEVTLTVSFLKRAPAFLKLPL

RHPN1, Q8TCX5 = molecular target: T6, RHPN1, Q8TCX5
T6 sequence (Q8TCX5 508-602, limits assumed, looked up): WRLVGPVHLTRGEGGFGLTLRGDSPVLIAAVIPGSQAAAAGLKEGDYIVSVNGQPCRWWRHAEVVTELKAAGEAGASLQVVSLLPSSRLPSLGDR

TX1BP3, O14907 = molecular target: T7, TX1BP3, O14907
T7 sequence (O14907 10-122, limits assumed, looked up): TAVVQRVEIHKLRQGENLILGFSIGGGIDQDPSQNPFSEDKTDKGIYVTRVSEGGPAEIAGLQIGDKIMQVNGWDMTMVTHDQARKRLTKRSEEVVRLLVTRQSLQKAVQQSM

TJP1_2, Q07157 = molecular target: TJP1_2, Q07157
CASK, O14936 = molecular target: CASK, O14936
MAGI1_1, Q96QZ7 = molecular target: MAGI1_1, Q96QZ7
GRIP2_4, Q9C0E4 = molecular target: GRIP2_4, Q9C0E4
MPP6, Q9NZW5 = molecular target: T8, MPP6, Q9NZW5
T8 sequence (Q9NZW5 125-219, limits assumed, looked up): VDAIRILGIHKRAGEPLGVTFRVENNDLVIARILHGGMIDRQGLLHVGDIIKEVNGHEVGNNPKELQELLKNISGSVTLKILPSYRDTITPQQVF

FRMPD2_1, Q68DX3 = molecular target: FRMPD2_1, Q68DX3
SNTA1, Q13424 = molecular target: T9, SNTA1, Q13424
T9 sequence (Q13424 82-180, limits assumed, looked up): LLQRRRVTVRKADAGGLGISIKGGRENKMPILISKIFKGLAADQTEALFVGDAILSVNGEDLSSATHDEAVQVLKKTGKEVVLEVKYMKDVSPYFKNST

GRIP2_7, Q9C0E4 = molecular target: GRIP2_7, Q9C0E4
TJP3_3, O95049 = molecular target: T10, TJP3_3, O95049
T10 sequence (O95049 375-456, limits assumed, looked up): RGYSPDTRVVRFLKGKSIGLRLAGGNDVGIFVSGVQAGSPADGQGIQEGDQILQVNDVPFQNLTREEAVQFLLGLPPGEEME

FRMPD1, Q5SYB0 = molecular target: T11, FRMPD1, Q5SYB0
T11 sequence (Q5SYB0 52-145, limits assumed, looked up): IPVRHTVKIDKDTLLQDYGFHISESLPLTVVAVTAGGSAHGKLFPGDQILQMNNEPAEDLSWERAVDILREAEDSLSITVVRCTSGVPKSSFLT

NHERF3_4, Q5T2W1 = molecular target: T12, NHERF3_4, Q5T2W1
T12 sequence (Q5T2W1 373-468, limits assumed, looked up): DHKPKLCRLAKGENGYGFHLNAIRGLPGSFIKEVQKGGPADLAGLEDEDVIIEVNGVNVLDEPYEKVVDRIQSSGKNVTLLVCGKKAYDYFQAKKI

HTRA3, P83110 = molecular target: T13, HTRA3, P83110
T13 sequence (P83110 354-453, limits assumed, looked up): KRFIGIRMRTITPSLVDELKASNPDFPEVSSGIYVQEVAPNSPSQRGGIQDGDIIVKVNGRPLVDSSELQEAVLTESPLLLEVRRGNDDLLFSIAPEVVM

CARD11, Q9BXL7 = molecular target: T14, CARD11, Q9BXL7
T14 sequence (Q9BXL7 662-765, limits assumed, looked up): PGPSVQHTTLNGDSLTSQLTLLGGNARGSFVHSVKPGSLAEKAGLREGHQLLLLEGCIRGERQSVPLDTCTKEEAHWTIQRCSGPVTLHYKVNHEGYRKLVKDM

PDZD7_3, Q9H5P4 = molecular target: T15, PDZD7_3, Q9H5P4
T15 sequence (Q9H5P4 857-944, limits assumed, looked up): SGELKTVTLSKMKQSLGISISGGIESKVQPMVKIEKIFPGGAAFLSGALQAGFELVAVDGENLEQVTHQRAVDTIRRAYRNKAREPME

Measured: pKd

Sequence of MAGI1_1, Q96QZ7 (Q96QZ7 1-106): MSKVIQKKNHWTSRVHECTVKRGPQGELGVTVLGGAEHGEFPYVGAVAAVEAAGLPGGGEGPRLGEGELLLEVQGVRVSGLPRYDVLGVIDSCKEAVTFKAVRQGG
Sequence of GRIP2_7, Q9C0E4 (Q9C0E4 934-1023): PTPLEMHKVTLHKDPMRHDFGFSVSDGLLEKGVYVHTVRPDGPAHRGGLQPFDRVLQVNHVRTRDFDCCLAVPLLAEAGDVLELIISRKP
Sequence of FRMPD2_1, Q68DX3 (Q68DX3 770-861): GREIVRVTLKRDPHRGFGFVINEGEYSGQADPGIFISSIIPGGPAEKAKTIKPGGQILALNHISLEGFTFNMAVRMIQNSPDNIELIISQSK
Sequence of MAGI2_6, Q86UL8 (Q86UL8 1141-1229): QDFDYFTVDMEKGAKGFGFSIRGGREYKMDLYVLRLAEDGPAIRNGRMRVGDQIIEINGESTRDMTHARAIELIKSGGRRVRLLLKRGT
Sequence of TJP1_2, Q07157 (Q07157 181-274): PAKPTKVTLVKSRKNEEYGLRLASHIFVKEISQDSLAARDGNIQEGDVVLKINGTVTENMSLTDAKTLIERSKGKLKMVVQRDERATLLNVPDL
Sequence of GRIP2_4, Q9C0E4 (Q9C0E4 446-548): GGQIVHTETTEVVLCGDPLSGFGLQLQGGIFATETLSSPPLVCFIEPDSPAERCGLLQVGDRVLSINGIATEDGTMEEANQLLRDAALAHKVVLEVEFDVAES
Sequence of CASK, O14936 (O14936 487-570): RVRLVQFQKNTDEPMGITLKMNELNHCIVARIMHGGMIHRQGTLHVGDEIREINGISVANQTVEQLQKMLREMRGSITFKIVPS

SFISKKEWYV [NECTIN1, Q15223]
4.41: ARHGEF11, O15085
5.62: GRIP2_7, Q9C0E4
4.1: TJP3_3, O95049
3.56: MAGI2_6, Q86UL8
4.42: MPP6, Q9NZW5
3.51: SNTG1, Q9NSN8
5.11: MPP7, Q5T2T1
4.22: FRMPD2_1, Q68DX3
4.83: HTRA3, P83110
below the threshold: all other assays above

LKDDELKTKL [SLCO1A2, P46721]
3.98: ARHGEF11, O15085
4.91: NHERF3_4, Q5T2W1
3.82: RHPN1, Q8TCX5
4.43: PDZD7_3, Q9H5P4
below the threshold: all other assays above

AEASVACSLC [PTGIR, P43119]
4.47: PDZD7_3, Q9H5P4
4.15: HTRA3, P83110
below the threshold: all other assays above
